This note sets out measurements from patent US20110300138A1 (published 2011).

B1: K1-18 IgG (antibody, V domains shown)
VH: EVQLVQSGAEVKKPGESLKISCKGSGYSFTNYWIGWVRQMPGKGLEWMGIIYPYDSDTRYSPSFEGQVTISADKSIRTAYLHWSSLKASDTAMYYCVRPRDGSYPYDAFDIWGQGTMVTVSS
VL: EIVLTQSPGTLSLSPGERATLSCRASQSVSNNYLAWYQQKPGQAPRLLIYGASSRATGIPDRFSGSGSGTDFTLTISRLEPEDFAVYYCQHCGSSLRAFGQGTKVEIKR
notes: Human IgG1 kappa purified from hetero-hybridoma supernatant; also called human monoclonal autoantibody to the TSHR with TSH agonist activity
B2: K1-18 Fab (Fab, V domains shown)
VH: B1 VH
VL: B1 VL
B3: K1-70 IgG (antibody, V domains shown)
VH: EVQLVQSGAEVKKPGQSLKISCKASGYSLTDNWIGWVRQKPGKGLEWMGIIYPGDSDTRYSPSFQGQVTISADKSINTAYLQWSSLKASDTAIYYCVGLDWNYNPLRYWGPGTLVTVSS
VL: QSVLTQPPSVSAAPGQKVTISCSGSSSDIGSNYVSWYQQFPGTAPKLLIYDNNKRPSAIPDRFSGSKSGTSATLGITGLQTGDEADYYCGTWDSRLGIAVFGGGTQLTVLG
notes: Human IgG1 lambda purified from hetero-hybridoma supernatant; also called human monoclonal autoantibody to the TSHR with TSH antagonist activity
B4: K1-70 Fab (Fab, V domains shown)
VH: B3 VH
VL: B3 VL

For the first experiment, the target named is T1, human TSH receptor (full length), coated on tubes (human, UniProt P16473 22-764).
T1 construct: TSHR coated tubes as described in WO2004/050708A2; The receptor is full length and held on plastic tubes through a mouse MAb to the TSHR; also called thyroid stimulating hormone receptor
Briefly: inhibition of 125I-K1-70 Fab (competitor) binding to TSHR coated tubes; 100 µg/mL in HBD serum pool. As for the experimental part:
(§1) Binding inhibition assays were carried out using TSHR coated tubes as described in WO2004/050708A2. […] After aspiration, the tubes were washed and 100 μL of ¹²⁵I-labelled protein (5×10⁴ cpm) added and incubated for 1 hour at room temperature with shaking. The tubes were then aspirated, washed and counted in a gamma counter. Inhibition of labelled protein binding was calculated as 100×[1−(cpm bound in the presence of test material/cpm bound in the presence of control material)].
Consider B1, for which the “Inhibition of binding (%)” value turned out to be 96%.
With B2, the “Inhibition of binding (%)” value stood at 85.7%.
Consider B3, for which the “Inhibition of binding (%)” value stood at 97.7%.
Still for that read-out and setting: then B4, with 96.3%.

For another experiment, the target named is T1, human TSH receptor (full length), …. Put plainly: inhibition of 125I-K1-70 Fab (competitor) binding to TSHR coated tubes; 30 µg/mL in HBD serum pool. As for the experimental part: as §1
For B1, the “Inhibition of binding (%)” value stood at 95.6%.
On the same count and under the same terms, then B2, with 85.4%; and B3, with 97.4%; and B4, with 95.7%.

The target is the same in a further experiment. Put plainly: inhibition of 125I-K1-70 Fab (competitor) binding to TSHR coated tubes; 30 µg/mL in assay buffer. As for the experimental part:
as §1
With B1, the “Inhibition of binding (%)” value amounted to 94.5%.
B2: the “Inhibition of binding (%)” value came out at 83.2%.
On the same count and under the same terms, next, B3: 97.7%.
On the same count and under the same terms, then B4, with 95.1%.

The next experiment has the same target. Briefly: inhibition of 125I-K1-70 Fab (competitor) binding to TSHR coated tubes; 0.1 µg/mL in assay buffer. As for the experimental part:
as §1
Consider B1, for which the “Inhibition of binding (%)” value was found to be 83.6%.
On the same count and under the same terms, next, B2: 62.9%; B3: 93.5%; B4: 92.2%.

For another experiment the target is unchanged. Put plainly: inhibition of 125I-K1-70 Fab (competitor) binding to TSHR coated tubes; 0.003 µg/mL in assay buffer. As for the experimental part:
as §1
Turning to B1, the “Inhibition of binding (%)” value stood at 11.4%.
As to B2, the “Inhibition of binding (%)” value amounted to 5%.
Turning to B3, the “Inhibition of binding (%)” value came to 27.7%.
As to B4, the “Inhibition of binding (%)” value stood at 40%.

The next experiment shares this target. Briefly: inhibition of 125I-K1-70 Fab (competitor) binding to TSHR coated tubes; 3 µg/mL in HBD serum pool. As for the experimental part:
as §1
On to B1, for which the “Inhibition of binding (%)” value was 93%.
B2: the “Inhibition of binding (%)” value turned out to be 82.6%.
Still for that read-out and setting: then B3, with 96.2%; and B4, with 94.9%.

For a further experiment the target is unchanged. Put plainly: inhibition of 125I-K1-70 Fab (competitor) binding to TSHR coated tubes; 0.3 µg/mL in assay buffer. As for the experimental part: as §1
As to B1, the “Inhibition of binding (%)” value is 92.6%.
On the same count and under the same terms, next, B2: 75.9%.
Take B3: the “Inhibition of binding (%)” value was 94.2%.
Regarding B4, the “Inhibition of binding (%)” value was 92.7%.

For another experiment the target is unchanged. Briefly: inhibition of 125I-K1-70 Fab (competitor) binding to TSHR coated tubes; 100 µg/mL in assay buffer. As for the experimental part: as §1
On to B1, for which the “Inhibition of binding (%)” value was 95.3%.
Turning to B2, the “Inhibition of binding (%)” value is 86.4%.
For B3, the “Inhibition of binding (%)” value was 97.7%.
For B4, the “Inhibition of binding (%)” value was 96.7%.

A further experiment shares this target. Briefly: inhibition of 125I-K1-70 Fab (competitor) binding to TSHR coated tubes; 0.3 µg/mL in HBD serum pool. As for the experimental part: as §1
With B1, the “Inhibition of binding (%)” value was 77.7%.
Turning to B2, the “Inhibition of binding (%)” value turned out to be 63.9%.
With B3, the “Inhibition of binding (%)” value was determined as 97%.
In the case of B4, the “Inhibition of binding (%)” value is 91.4%.

A further experiment shares this target. Put plainly: inhibition of 125I-K1-70 Fab (competitor) binding to TSHR coated tubes; 10 µg/mL in assay buffer. As for the experimental part: as §1
As to B1, the “Inhibition of binding (%)” value was determined as 94%.
Same read-out and setting: next, B2: 80.8%; B3: 96.9%.
Regarding B4, the “Inhibition of binding (%)” value came to 93.6%.

Another experiment shares this target. Briefly: inhibition of 125I-K1-70 Fab (competitor) binding to TSHR coated tubes; 0.001 µg/mL in HBD serum pool. As for the experimental part: as §1
In the case of B1, the “Inhibition of binding (%)” value is -6.8%.
Consider B2, for which the “Inhibition of binding (%)” value is -8.2%.
As for B3, the “Inhibition of binding (%)” value is -8.8%.
Still for that read-out and setting: next, B4: -2.5%.

A further experiment shares this target. Put plainly: inhibition of 125I-K1-70 Fab (competitor) binding to TSHR coated tubes; 0.003 µg/mL in HBD serum pool. As for the experimental part: as §1
Turning to B1, the “Inhibition of binding (%)” value is -9.4%.
The same measure, in the same setting: then B2, with -9.6%; and B3, with -0.8%.
B4: the “Inhibition of binding (%)” value came to 2.5%.

For the next experiment the target is unchanged. Put plainly: inhibition of 125I-K1-70 Fab (competitor) binding to TSHR coated tubes; 0.03 µg/mL in assay buffer. As for the experimental part:
as §1
For B1, the “Inhibition of binding (%)” value was determined as 63.1%.
B2: the “Inhibition of binding (%)” value came to 38.8%.
Same read-out and setting: next, B3: 89%.
Regarding B4, the “Inhibition of binding (%)” value was determined as 89%.

A further experiment has the same target. Briefly: inhibition of 125I-K1-70 Fab (competitor) binding to TSHR coated tubes; 1 µg/mL in HBD serum pool. As for the experimental part: as §1
Take B1: the “Inhibition of binding (%)” value was determined as 89.4%.
As to B2, the “Inhibition of binding (%)” value came to 78.7%.
Still for that read-out and setting: next, B3: 94.1%; B4: 94.2%.

Another experiment has the same target. Put plainly: inhibition of 125I-K1-70 Fab (competitor) binding to TSHR coated tubes; 0.01 µg/mL in assay buffer. As for the experimental part:
as §1
For B1, the “Inhibition of binding (%)” value turned out to be 30.3%.
As to B2, the “Inhibition of binding (%)” value turned out to be 16.7%.
For B3, the “Inhibition of binding (%)” value amounted to 66.2%.
Consider B4, for which the “Inhibition of binding (%)” value turned out to be 75.6%.

The next experiment shares this target. Put plainly: inhibition of 125I-K1-70 Fab (competitor) binding to TSHR coated tubes; 0.01 µg/mL in HBD serum pool. As for the experimental part:
as §1
Take B1: the “Inhibition of binding (%)” value turned out to be 2.2%.
For the molecule B2, the “Inhibition of binding (%)” value was -0.8%.
As to B3, the “Inhibition of binding (%)” value turned out to be 10.6%.
For the molecule B4, the “Inhibition of binding (%)” value worked out at 25.3%.

The next experiment shares this target. Put plainly: inhibition of 125I-K1-70 Fab (competitor) binding to TSHR coated tubes; 0.1 µg/mL in HBD serum pool. As for the experimental part: as §1
Take B1: the “Inhibition of binding (%)” value turned out to be 51%.
As to B2, the “Inhibition of binding (%)” value came out at 36.9%.
In the case of B3, the “Inhibition of binding (%)” value was found to be 66.5%.
Take B4: the “Inhibition of binding (%)” value amounted to 81.9%.

A further experiment shares this target. Briefly: inhibition of 125I-K1-70 Fab (competitor) binding to TSHR coated tubes; 10 µg/mL in HBD serum pool. As for the experimental part:
as §1
As to B1, the “Inhibition of binding (%)” value amounted to 94.8%.
As to B2, the “Inhibition of binding (%)” value turned out to be 83.2%.
On the same count and under the same terms, then B3, with 96.6%; and B4, with 94.8%.

Another experiment shares this target. Briefly: inhibition of 125I-K1-70 Fab (competitor) binding to TSHR coated tubes; 0.001 µg/mL in assay buffer. As for the experimental part: as §1
Regarding B1, the “Inhibition of binding (%)” value is 5.9%.
For the molecule B2, the “Inhibition of binding (%)” value is 3.8%.
Same read-out and setting: then B3, with 5.5%.
Regarding B4, the “Inhibition of binding (%)” value came out at 11.9%.

The target is the same in a further experiment. Put plainly: inhibition of 125I-K1-70 Fab (competitor) binding to TSHR coated tubes; 1 µg/mL in assay buffer. As for the experimental part:
as §1
For B1, the “Inhibition of binding (%)” value was 93.1%.
Consider B2, for which the “Inhibition of binding (%)” value stood at 79%.
For the molecule B3, the “Inhibition of binding (%)” value is 95.2%.
With B4, the “Inhibition of binding (%)” value was 93.5%.

Another experiment has the same target. Briefly: inhibition of 125I-K1-70 Fab (competitor) binding to TSHR coated tubes; 0.03 µg/mL in HBD serum pool. As for the experimental part: as §1
Regarding B1, the “Inhibition of binding (%)” value turned out to be 17.2%.
On to B2, for which the “Inhibition of binding (%)” value stood at 7.9%.
Take B3: the “Inhibition of binding (%)” value came out at 37.8%.
In the case of B4, the “Inhibition of binding (%)” value worked out at 57.2%.

The target is the same in the next experiment. Put plainly: inhibition of 125I-K1-70 Fab (competitor) binding to TSHR coated tubes; 3 µg/mL in assay buffer. As for the experimental part: as §1
With B1, the “Inhibition of binding (%)” value was found to be 93.3%.
Take B2: the “Inhibition of binding (%)” value was 80.6%.
Still for that read-out and setting: then B3, with 95.5%.
For B4, the “Inhibition of binding (%)” value worked out at 93.5%.
